Measured values reported in PMC12416549 (2024).

T1: TNFR1 (Homo sapiens, UniProt P19438)
T1 chain: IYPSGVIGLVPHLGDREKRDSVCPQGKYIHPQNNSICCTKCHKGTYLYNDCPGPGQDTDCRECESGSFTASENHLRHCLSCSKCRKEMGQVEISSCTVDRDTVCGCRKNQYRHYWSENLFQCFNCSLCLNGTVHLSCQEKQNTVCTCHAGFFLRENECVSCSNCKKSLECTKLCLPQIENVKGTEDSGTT


Molecular target: T1, TNFR1
Experiment: yeast display SC50

Row | apparent Kd (screen) [nM] | Binder
1 | 0.304 | Y22E (designed binder) MTLQELLREEALRRAEAEAFREALELLAEKFPEQKEYLLDLAEEIESQIRSLSGVDVEDVRKFLDKEWAWVKELLAEHPAELAEVEAARAARLAELRAEVEAKVAA
2 | 0.368 | S51F (designed binder) MTLQELLREEALRRAEAEAFRYALELLAEKFPEQKEYLLDLAEEIESQIRFLSGVDVEDVRKFLDKEWAWVKELLAEHPAELAEVEAARAARLAELRAEVEAKVAA
3 | 1.54 | V57N (designed binder) MTLQELLREEALRRAEAEAFRYALELLAEKFPEQKEYLLDLAEEIESQIRSLSGVDNEDVRKFLDKEWAWVKELLAEHPAELAEVEAARAARLAELRAEVEAKVAA
4 | 0.49 | E99H (designed binder) MTLQELLREEALRRAEAEAFRYALELLAEKFPEQKEYLLDLAEEIESQIRSLSGVDVEDVRKFLDKEWAWVKELLAEHPAELAEVEAARAARLAELRAHVEAKVAA
5 | 0.593 | A19G (designed binder) MTLQELLREEALRRAEAEGFRYALELLAEKFPEQKEYLLDLAEEIESQIRSLSGVDVEDVRKFLDKEWAWVKELLAEHPAELAEVEAARAARLAELRAEVEAKVAA
6 | 6.43 | D56P (designed binder) MTLQELLREEALRRAEAEAFRYALELLAEKFPEQKEYLLDLAEEIESQIRSLSGVPVEDVRKFLDKEWAWVKELLAEHPAELAEVEAARAARLAELRAEVEAKVAA
7 | 2.73 | Q34M (designed binder) MTLQELLREEALRRAEAEAFRYALELLAEKFPEMKEYLLDLAEEIESQIRSLSGVDVEDVRKFLDKEWAWVKELLAEHPAELAEVEAARAARLAELRAEVEAKVAA
8 | 0.653 | E101M (designed binder) MTLQELLREEALRRAEAEAFRYALELLAEKFPEQKEYLLDLAEEIESQIRSLSGVDVEDVRKFLDKEWAWVKELLAEHPAELAEVEAARAARLAELRAEVMAKVAA
9 | 0.653 | E46T (designed binder) MTLQELLREEALRRAEAEAFRYALELLAEKFPEQKEYLLDLAEEITSQIRSLSGVDVEDVRKFLDKEWAWVKELLAEHPAELAEVEAARAARLAELRAEVEAKVAA
10 | 0.593 | K62A (designed binder) MTLQELLREEALRRAEAEAFRYALELLAEKFPEQKEYLLDLAEEIESQIRSLSGVDVEDVRAFLDKEWAWVKELLAEHPAELAEVEAARAARLAELRAEVEAKVAA
11 | 0.405 | A23N (designed binder) MTLQELLREEALRRAEAEAFRYNLELLAEKFPEQKEYLLDLAEEIESQIRSLSGVDVEDVRKFLDKEWAWVKELLAEHPAELAEVEAARAARLAELRAEVEAKVAA
12 | 0.593 | R14Q (designed binder) MTLQELLREEALRQAEAEAFRYALELLAEKFPEQKEYLLDLAEEIESQIRSLSGVDVEDVRKFLDKEWAWVKELLAEHPAELAEVEAARAARLAELRAEVEAKVAA
13 | 0.718 | K72C (designed binder) MTLQELLREEALRRAEAEAFRYALELLAEKFPEQKEYLLDLAEEIESQIRSLSGVDVEDVRKFLDKEWAWVCELLAEHPAELAEVEAARAARLAELRAEVEAKVAA
14 | 2.48 | L7M (designed binder) MTLQELMREEALRRAEAEAFRYALELLAEKFPEQKEYLLDLAEEIESQIRSLSGVDVEDVRKFLDKEWAWVKELLAEHPAELAEVEAARAARLAELRAEVEAKVAA
15 | 2.05 | A28V (designed binder) MTLQELLREEALRRAEAEAFRYALELLVEKFPEQKEYLLDLAEEIESQIRSLSGVDVEDVRKFLDKEWAWVKELLAEHPAELAEVEAARAARLAELRAEVEAKVAA
16 | 0.539 | R14C (designed binder) MTLQELLREEALRCAEAEAFRYALELLAEKFPEQKEYLLDLAEEIESQIRSLSGVDVEDVRKFLDKEWAWVKELLAEHPAELAEVEAARAARLAELRAEVEAKVAA
17 | 0.653 | E10Y (designed binder) MTLQELLREYALRRAEAEAFRYALELLAEKFPEQKEYLLDLAEEIESQIRSLSGVDVEDVRKFLDKEWAWVKELLAEHPAELAEVEAARAARLAELRAEVEAKVAA
18 | 0.593 | K72F (designed binder) MTLQELLREEALRRAEAEAFRYALELLAEKFPEQKEYLLDLAEEIESQIRSLSGVDVEDVRKFLDKEWAWVFELLAEHPAELAEVEAARAARLAELRAEVEAKVAA

Row | apparent Kd (screen) [nM] | Binder
19 | 0.49 | Q34S (designed binder) MTLQELLREEALRRAEAEAFRYALELLAEKFPESKEYLLDLAEEIESQIRSLSGVDVEDVRKFLDKEWAWVKELLAEHPAELAEVEAARAARLAELRAEVEAKVAA
20 | 0.49 | A17F (designed binder) MTLQELLREEALRRAEFEAFRYALELLAEKFPEQKEYLLDLAEEIESQIRSLSGVDVEDVRKFLDKEWAWVKELLAEHPAELAEVEAARAARLAELRAEVEAKVAA
21 | 0.405 | K35N (designed binder) MTLQELLREEALRRAEAEAFRYALELLAEKFPEQNEYLLDLAEEIESQIRSLSGVDVEDVRKFLDKEWAWVKELLAEHPAELAEVEAARAARLAELRAEVEAKVAA
22 | 0.956 | R14V (designed binder) MTLQELLREEALRVAEAEAFRYALELLAEKFPEQKEYLLDLAEEIESQIRSLSGVDVEDVRKFLDKEWAWVKELLAEHPAELAEVEAARAARLAELRAEVEAKVAA
23 | 1.05 | S51R (designed binder) MTLQELLREEALRRAEAEAFRYALELLAEKFPEQKEYLLDLAEEIESQIRRLSGVDVEDVRKFLDKEWAWVKELLAEHPAELAEVEAARAARLAELRAEVEAKVAA
24 | 0.142 | R13Q (designed binder) MTLQELLREEALQRAEAEAFRYALELLAEKFPEQKEYLLDLAEEIESQIRSLSGVDVEDVRKFLDKEWAWVKELLAEHPAELAEVEAARAARLAELRAEVEAKVAA
25 | 0.539 | E29Y (designed binder) MTLQELLREEALRRAEAEAFRYALELLAYKFPEQKEYLLDLAEEIESQIRSLSGVDVEDVRKFLDKEWAWVKELLAEHPAELAEVEAARAARLAELRAEVEAKVAA
26 | 0.539 | P32R (designed binder) MTLQELLREEALRRAEAEAFRYALELLAEKFREQKEYLLDLAEEIESQIRSLSGVDVEDVRKFLDKEWAWVKELLAEHPAELAEVEAARAARLAELRAEVEAKVAA
27 | 9.41 | E44Q (designed binder) MTLQELLREEALRRAEAEAFRYALELLAEKFPEQKEYLLDLAEQIESQIRSLSGVDVEDVRKFLDKEWAWVKELLAEHPAELAEVEAARAARLAELRAEVEAKVAA
28 | 0.79 | K103E (designed binder) MTLQELLREEALRRAEAEAFRYALELLAEKFPEQKEYLLDLAEEIESQIRSLSGVDVEDVRKFLDKEWAWVKELLAEHPAELAEVEAARAARLAELRAEVEAEVAA
29 | 0.49 | R21W (designed binder) MTLQELLREEALRRAEAEAFWYALELLAEKFPEQKEYLLDLAEEIESQIRSLSGVDVEDVRKFLDKEWAWVKELLAEHPAELAEVEAARAARLAELRAEVEAKVAA
30 | 0.49 | E46M (designed binder) MTLQELLREEALRRAEAEAFRYALELLAEKFPEQKEYLLDLAEEIMSQIRSLSGVDVEDVRKFLDKEWAWVKELLAEHPAELAEVEAARAARLAELRAEVEAKVAA
31 | 0.49 | E5R (designed binder) MTLQRLLREEALRRAEAEAFRYALELLAEKFPEQKEYLLDLAEEIESQIRSLSGVDVEDVRKFLDKEWAWVKELLAEHPAELAEVEAARAARLAELRAEVEAKVAA
32 | 0.405 | K35L (designed binder) MTLQELLREEALRRAEAEAFRYALELLAEKFPEQLEYLLDLAEEIESQIRSLSGVDVEDVRKFLDKEWAWVKELLAEHPAELAEVEAARAARLAELRAEVEAKVAA
33 | 6.43 | L52P (designed binder) MTLQELLREEALRRAEAEAFRYALELLAEKFPEQKEYLLDLAEEIESQIRSPSGVDVEDVRKFLDKEWAWVKELLAEHPAELAEVEAARAARLAELRAEVEAKVAA
34 | 0.653 | V57S (designed binder) MTLQELLREEALRRAEAEAFRYALELLAEKFPEQKEYLLDLAEEIESQIRSLSGVDSEDVRKFLDKEWAWVKELLAEHPAELAEVEAARAARLAELRAEVEAKVAA
35 | 0.142 | E43Y (designed binder) MTLQELLREEALRRAEAEAFRYALELLAEKFPEQKEYLLDLAYEIESQIRSLSGVDVEDVRKFLDKEWAWVKELLAEHPAELAEVEAARAARLAELRAEVEAKVAA
